Results on one substance are retold here after patent US20070041992A1.

For the assay, the target named is low density lipoprotein receptor-related protein (LRP-1) on rat liver cells (rat) (UniProt G3V928). The assay is described as follows: cell-based or functional assay.
Sequence of low density lipoprotein receptor-related protein (LRP-1) on rat liver cells (rat) (G3V928 20-4545): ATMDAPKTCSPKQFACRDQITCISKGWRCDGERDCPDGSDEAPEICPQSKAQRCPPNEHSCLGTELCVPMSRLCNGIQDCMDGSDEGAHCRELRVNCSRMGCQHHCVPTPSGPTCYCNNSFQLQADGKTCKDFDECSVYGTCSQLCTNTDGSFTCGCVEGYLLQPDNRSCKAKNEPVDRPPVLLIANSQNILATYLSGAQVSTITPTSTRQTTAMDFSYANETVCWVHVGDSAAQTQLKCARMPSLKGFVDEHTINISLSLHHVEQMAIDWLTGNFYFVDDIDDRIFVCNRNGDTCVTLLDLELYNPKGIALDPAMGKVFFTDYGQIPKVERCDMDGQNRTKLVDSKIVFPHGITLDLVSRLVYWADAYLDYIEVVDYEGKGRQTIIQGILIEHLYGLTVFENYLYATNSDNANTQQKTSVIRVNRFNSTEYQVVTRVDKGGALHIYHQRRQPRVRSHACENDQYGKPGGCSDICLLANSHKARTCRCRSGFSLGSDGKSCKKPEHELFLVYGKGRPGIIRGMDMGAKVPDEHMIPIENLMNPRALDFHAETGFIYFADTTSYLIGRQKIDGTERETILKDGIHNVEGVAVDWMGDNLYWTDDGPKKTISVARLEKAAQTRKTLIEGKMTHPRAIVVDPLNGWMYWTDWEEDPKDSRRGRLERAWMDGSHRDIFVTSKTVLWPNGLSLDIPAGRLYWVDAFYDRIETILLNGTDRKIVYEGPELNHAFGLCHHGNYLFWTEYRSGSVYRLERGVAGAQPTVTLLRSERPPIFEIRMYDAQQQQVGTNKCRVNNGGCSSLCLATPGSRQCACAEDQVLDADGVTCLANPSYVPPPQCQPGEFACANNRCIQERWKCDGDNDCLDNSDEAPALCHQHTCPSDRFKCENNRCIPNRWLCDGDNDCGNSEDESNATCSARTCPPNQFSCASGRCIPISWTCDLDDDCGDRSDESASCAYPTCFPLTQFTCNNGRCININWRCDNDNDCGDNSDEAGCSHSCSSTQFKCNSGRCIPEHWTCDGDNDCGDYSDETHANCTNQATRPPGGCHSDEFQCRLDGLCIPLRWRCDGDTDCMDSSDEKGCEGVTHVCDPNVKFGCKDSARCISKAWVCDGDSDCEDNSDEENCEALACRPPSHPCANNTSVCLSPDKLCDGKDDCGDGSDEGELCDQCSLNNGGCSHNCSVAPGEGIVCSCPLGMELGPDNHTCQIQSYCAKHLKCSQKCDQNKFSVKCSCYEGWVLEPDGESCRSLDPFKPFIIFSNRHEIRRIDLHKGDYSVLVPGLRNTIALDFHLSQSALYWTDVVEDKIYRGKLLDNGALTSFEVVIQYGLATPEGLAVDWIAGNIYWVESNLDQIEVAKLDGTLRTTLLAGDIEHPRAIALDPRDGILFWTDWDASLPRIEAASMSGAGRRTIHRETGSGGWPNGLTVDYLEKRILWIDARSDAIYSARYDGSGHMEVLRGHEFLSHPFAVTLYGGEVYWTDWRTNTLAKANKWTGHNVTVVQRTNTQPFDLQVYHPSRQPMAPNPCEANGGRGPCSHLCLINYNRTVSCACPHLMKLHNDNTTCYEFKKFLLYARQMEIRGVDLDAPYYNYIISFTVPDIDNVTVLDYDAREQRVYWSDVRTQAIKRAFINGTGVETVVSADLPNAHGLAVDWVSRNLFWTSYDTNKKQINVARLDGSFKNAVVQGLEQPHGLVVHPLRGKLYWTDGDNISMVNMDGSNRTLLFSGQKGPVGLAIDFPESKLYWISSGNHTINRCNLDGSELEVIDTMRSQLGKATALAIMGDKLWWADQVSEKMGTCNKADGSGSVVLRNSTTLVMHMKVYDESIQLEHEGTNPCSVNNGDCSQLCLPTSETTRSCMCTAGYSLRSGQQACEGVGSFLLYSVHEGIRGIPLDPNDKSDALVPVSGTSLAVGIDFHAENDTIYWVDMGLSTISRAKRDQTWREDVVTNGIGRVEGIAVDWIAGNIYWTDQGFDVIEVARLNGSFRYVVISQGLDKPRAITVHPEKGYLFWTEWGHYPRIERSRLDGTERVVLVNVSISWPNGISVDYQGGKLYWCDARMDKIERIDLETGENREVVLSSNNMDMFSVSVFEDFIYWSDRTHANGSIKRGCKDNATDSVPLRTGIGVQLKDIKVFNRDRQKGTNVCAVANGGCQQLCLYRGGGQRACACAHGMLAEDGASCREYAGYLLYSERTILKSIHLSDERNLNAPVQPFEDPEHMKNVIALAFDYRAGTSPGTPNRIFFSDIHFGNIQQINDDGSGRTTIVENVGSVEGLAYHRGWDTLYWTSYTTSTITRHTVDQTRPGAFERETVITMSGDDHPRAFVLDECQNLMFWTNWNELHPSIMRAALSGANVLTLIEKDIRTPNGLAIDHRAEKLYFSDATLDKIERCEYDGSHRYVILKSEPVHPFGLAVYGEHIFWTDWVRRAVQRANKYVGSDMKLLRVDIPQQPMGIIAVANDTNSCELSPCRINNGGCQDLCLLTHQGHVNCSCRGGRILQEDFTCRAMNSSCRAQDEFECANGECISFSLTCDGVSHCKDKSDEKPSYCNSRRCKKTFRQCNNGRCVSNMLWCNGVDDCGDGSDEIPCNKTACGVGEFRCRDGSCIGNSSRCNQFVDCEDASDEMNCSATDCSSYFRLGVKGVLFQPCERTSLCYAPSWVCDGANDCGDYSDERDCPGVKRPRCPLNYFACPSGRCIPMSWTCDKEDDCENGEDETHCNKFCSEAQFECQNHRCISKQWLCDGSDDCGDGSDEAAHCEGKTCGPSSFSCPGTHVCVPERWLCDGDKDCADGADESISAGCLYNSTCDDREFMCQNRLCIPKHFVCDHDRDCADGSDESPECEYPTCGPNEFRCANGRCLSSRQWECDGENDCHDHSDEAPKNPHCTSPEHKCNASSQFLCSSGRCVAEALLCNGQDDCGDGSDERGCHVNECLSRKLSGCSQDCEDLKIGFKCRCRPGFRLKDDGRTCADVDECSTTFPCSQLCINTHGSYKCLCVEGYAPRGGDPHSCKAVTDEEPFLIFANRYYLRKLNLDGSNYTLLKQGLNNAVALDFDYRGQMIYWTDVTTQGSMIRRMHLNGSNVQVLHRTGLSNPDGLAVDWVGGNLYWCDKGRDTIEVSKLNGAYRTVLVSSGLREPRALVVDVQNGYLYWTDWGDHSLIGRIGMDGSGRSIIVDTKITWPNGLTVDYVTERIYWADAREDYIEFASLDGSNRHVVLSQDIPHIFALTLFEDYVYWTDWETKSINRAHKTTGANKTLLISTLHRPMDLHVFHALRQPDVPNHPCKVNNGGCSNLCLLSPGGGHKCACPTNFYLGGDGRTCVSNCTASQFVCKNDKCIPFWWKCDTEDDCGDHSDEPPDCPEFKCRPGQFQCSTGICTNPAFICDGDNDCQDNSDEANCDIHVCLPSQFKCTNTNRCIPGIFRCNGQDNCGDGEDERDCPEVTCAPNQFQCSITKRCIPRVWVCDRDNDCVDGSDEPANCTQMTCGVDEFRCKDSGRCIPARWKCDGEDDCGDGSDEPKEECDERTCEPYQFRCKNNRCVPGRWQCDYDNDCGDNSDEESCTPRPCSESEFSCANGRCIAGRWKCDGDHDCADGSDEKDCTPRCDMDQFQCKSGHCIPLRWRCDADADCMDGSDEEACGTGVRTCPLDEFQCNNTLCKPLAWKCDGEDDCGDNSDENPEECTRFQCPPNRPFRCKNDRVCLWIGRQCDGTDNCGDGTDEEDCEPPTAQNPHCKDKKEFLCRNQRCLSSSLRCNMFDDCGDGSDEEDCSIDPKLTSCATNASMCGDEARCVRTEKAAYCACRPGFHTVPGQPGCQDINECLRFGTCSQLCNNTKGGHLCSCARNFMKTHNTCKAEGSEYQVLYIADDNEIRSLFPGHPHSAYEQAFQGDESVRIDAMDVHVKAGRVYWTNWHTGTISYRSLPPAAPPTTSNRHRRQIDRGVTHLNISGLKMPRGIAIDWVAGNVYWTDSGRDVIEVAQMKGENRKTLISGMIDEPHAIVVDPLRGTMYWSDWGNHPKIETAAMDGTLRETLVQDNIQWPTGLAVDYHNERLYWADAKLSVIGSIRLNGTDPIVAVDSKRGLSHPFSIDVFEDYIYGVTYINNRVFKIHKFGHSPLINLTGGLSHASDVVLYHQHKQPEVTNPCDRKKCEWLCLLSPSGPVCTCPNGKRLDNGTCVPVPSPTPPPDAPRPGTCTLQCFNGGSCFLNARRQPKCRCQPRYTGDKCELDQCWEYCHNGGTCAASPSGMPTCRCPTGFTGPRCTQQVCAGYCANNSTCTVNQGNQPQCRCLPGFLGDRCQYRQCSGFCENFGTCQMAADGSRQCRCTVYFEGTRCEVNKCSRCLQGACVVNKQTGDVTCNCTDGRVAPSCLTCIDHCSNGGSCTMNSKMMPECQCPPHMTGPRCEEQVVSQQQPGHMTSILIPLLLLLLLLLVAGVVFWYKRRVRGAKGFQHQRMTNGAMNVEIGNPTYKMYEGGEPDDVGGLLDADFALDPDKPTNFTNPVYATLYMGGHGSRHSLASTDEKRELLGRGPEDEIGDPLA

“P. falciparum CS protein CS27IVC-His6 (AA 27-123[NANPNVDP]3[NANP]21300-411) (from UniProt P05691 27-123) (ligand)” had an elevation of the cAMP level in Kupffer cells of 3 fold.
